Data taken from patent US9750814B2, “Polypeptides to inhibit epstein barr viral protein BHRF1 and B cell lymphoma family proteins” (priority 2014, dated 2017).

Tests used:
colon cancer cell lines = experiment: Long-term survival assay, colon cancer cell lines; format: cell-based, human; settings: colon cancer lines
Procedure: Inducible αMCL1 and αBFL1 constructs were generated in a lentiviral vector described in Aubrey et al. (2015). Ligand expression is linked via the T2A peptide to mCherry™ fluorescent reporter protein. […] Viral supernatants were then filtered prior to target cell transduction. […] For infection of MEFs and colon cancer cell lines, equal volume of virus-containing supernatant was added to target cells pre-incubated with 10 ng/μL polybrene, and centrifuged at 2500 rpm for 2 hours at 32° C. Following spin inoculation, cells were then incubated overnight at 37° C. Cells expressing the doxycycline-inducible constructs were then selected by sorting mCherry^+ve cells. MEFs were maintained in DME Kelso medium supplemented with 10% (v/v) FBS, 250 mM L-asparagine and […] 2-mercaptoethanol. Colon cancer cell lines were maintained in DMEM/F-12 supplemented with 10% (v/v) FBS.
MEF and colon cancers were seeded in 6-well tissue culture plates in 2 mL culture media at 150 cells per mL. The next day and every 48 hours following, doxycycline was added at a final concentration of 1 μg/mL to each well, while nothing was added to control wells.

[1] = system: Bim association with pro-survival homologs in HeLa cells; experiment: Bim co-immunoprecipitation in HeLa cells; format: cell-based, human
Procedure: Cells were harvested, washed with PBS, and extracted with ice-cold Chaps buffer (40 mM Tris-HCl, pH 7.5, 150 mM NaCl, 1 mM EDTA, 2% CHAPS, and Complete Protease Inhibitors [Roche]) for 20 minutes, on ice. Extracts were spun down at 10,000 g for 10 min and supernatants were removed and used for SDS-PAGE analysis. Expression of proteins of interest was analyzed using antibodies against Bcl-2, Bcl-xL, Mcl-1 (as above), Bfl-1 (ProsSci, Inc.), Bim (BD Biosciences), and tubulin (SigmaAldrich). For immunoprecipitation experiments, 1,000 μg protein lysates were pre-cleared and then incubated with 3 μg Bim antibody for 2 hours at 4° C., followed by addition of Protein A/G Plus agarose beads (Santa Cruz Biotechnology) and overnight incubation with rotation at 4° C. Negative control reactions used normal IgG. Immunoprecipitates were washed four times with lysis buffer and eluted with loading buffer at 95° C., 2 times for 10 min, followed by SDS-PAGE analysis.

Mcl-1-dependent MEF line = experiment: Long-term survival (colony) assay, Mcl-1-dependent MEFs; format: cell-based, mouse; settings: seven day colony survival, doxycycline-induced expression
Excerpt: Mouse embryonic fibroblasts were generated from E13-E14.5 embryos derived from CreERT2/Bcl-x^fl/fl/Mcl-I^fl/fl C57BL/6 mice (Kelly et al., 2014) and immortalized (at passage 2-4) with SV40 large T antigen. Retroviral expression constructs in the pMIG vector (Murine Stem Cell Virus-IRES-GFP) expressing each FLAG-tagged pro-survival protein were transiently transfected using LIPOFECTAMINE™ (Invitrogen), into Phoenix ecotropic packaging cells. Filtered virus-containing supernatants were used to infect the MEFs by spin inoculation as previously described (Lee et al., 2008). Cells stably expressing each pro-survival protein were selected by sorting GFP^+ve cells 24 hours after spin inoculation and protein expression verified by Western blotting using an anti-FLAG antibody. Following verification of exogenous pro-survival protein expression, each cell line was treated with 1 μM Tamoxifen (Sigma-Aldrich) to enable deletion of endogenous Mcl-1 and Bcl-xL. Deletion of endogenous Mcl-1 and Bcl-xL was shown by Western blotting using anti-Mcl-1 (Rockland Clone, 600-401-394) and anti-Bcl-xL (BD Transduction Laboratories Clone 44/Bcl-x) antibodies. Cells were maintained in DME Kelso medium supplemented with 10% (v/v) fetal bovine serum, 250 mM L-asparagine and […] 2-mercaptoethanol.
Inducible αMCL1 and αBFL1 constructs were generated in a lentiviral vector described in Aubrey et al. (2015). […]

Mcl-1 = molecular target: T1, Mcl-1 (Homo sapiens, UniProt Q07820); experiment: Bio-layer interferometry (BLI), immobilized Mcl-1; format: binding; settings: BLI titrations
T1 construct: Mcl-1 a.a; made in house; host or cells: E. coli BL21* (DE3)
T1 sequence (Q07820 172-327): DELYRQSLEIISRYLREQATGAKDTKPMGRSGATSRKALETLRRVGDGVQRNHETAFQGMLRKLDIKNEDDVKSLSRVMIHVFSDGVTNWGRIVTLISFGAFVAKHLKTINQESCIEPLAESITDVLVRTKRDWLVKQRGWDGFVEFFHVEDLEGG
Excerpt: 11-175 (NP_065129.1), Mcl-1 a.a. […] For later BLI analysis, Bcl-B and Bfl-1 were genetically fused to C-terminal maltose-binding-protein with an avi-6his tag for improved solution properties. Codon usage was optimized for E. coli expression. […] The genes for individually-tested designed proteins were assembled from oligos (Hoover and Lubkowski, 2002) and cloned into pET29b (NdeI-XhoI sites) with C-terminal 6his tags for purification from E. coli, or cloned into PETCON (NdeI-XhoI sites; (Fleishman et al., 2011)) for yeast surface expression. Alternative tags were added using PCR methods. Point mutations were made by overlapping PCR (Procko et al., 2013). Error-prone PCR with an average error rate of 1.3 amino acid substitutions per clone used GeneMorph II Random Mutagenesis (Agilent Technologies).
Purified avi-6his-tagged ligands (20 μM) in reaction buffer (250 mM potassium glutamate, 20 mM Tris-Cl [pH 7.5], 50 mM bicine [pH 8.3], 10 mM ATP, 10 mM MgOAc, 100 μM d-biotin) were enzymatically biotinylated with 150 U/μl BirA (Avidity) at room temperature overnight, followed by purification with NiNTA-agarose and SEC. Biotinylated ligands were stored at 4° C. in 150 mM NaCl, 20 mM Tris-Cl (pH 7.5), 1 mM DTT, 0.02% sodium azide.
Data were collected on an Octet RED96 (Forte Bio) and processed using the instrument's integrated software. […] Biosensors were dipped in solutions containing the analyte of interest to measure association, and transferred back to empty binding buffer for monitoring dissociation. Kinetic constants were determined from the mathematical fit of a 1:1 binding model.

BCL2 family proteins = experiment: BLI specificity across BCL2 family proteins (next tightest binder versus intended target); design: species or system human; settings: fold weaker affinity for next tightest binding BCL2 family protein versus intended target
BHRF1 = BHRF1 (Epstein-Barr virus, UniProt P03182); settings: FACS sort for binding signal after 400 nM BHRF1
Chain of BHRF1 (P03182 1-161): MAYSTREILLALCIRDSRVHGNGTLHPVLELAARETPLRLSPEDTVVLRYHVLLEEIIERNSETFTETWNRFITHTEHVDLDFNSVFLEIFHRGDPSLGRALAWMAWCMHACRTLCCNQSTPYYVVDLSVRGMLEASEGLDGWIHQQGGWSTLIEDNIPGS
Excerpt: This was reduced to 74 designs (Indexes-01 to 74) after filtering for strong interface binding energy, low monomer folding energy and a low number of buried unsatisfied hydrogen bonding atoms. Barcoded genes were synthesized (Table 3) and the library transformed in to yeast for surface display (6×10^5 transformants). […] The library was sorted by a single round of FACS for cells expressing surface protein (FIG. 1C; lane 1), for the 2% of cells with highest expression (lane 2), and for cells showing binding signal after incubation with 100 nM (lane 3) or 400 nM BHRF1 (lane 4). DNA from the naive and post-sorted populations was harvested and sequenced by Illumina deep sequencing, and the recovery of each designed sequence determined.
Binding of biotinylated protein to the yeast surface is detected with phycoerythrin-conjugated streptavidin (Invitrogen).
Yeast cells were sorted on a BD Influx cytometer operated by Spigot (BD Biosciences) and recovered in SDCAA media at 30° C. overnight. Yeast were lysed with 125 U/ml Zymolase at 37° C. for 5 h, and DNA was harvested (Zymoprep kit from Zymo Research). […] DNA was deep sequenced with a MiSeq™ sequencer (Illumina) and sequences were analyzed with adapted scripts from Enrich (Fowler et al., 2011). […]

Molecule | effect on long-term survival (in words) (colon cancer cell lines) | effect on Bim binding profile ([1]; Bcl-2+ HeLa cells) | effect on Bim binding profile ([1]; wild-type HeLa cells) | decrease in survival (Mcl-1-dependent MEF line) [%] | affinity for other BCL2 family members relative to Mcl-1 (Mcl-1) | Specificity (BCL2 family proteins) | Log2 Enrichment Ratio: 400 nM BHRF1 (BHRF1)
MINDI: SEQ ID NO: 2; target Mcl-1 (protein) ADPKKVLDKAKDQAENRVRELKQVLEELYKEARKLDLTQEMRKKLIERYAAAIIRAIGDINNAIYQAKQEAEKLKKAGLVNSQQLDELLRRLDELQKEASRKANEYGREFELKLEY | negligible effect | no effect | displacement of Bim from Mcl-1 | 90±11 | over ten thousand-fold weaker affinity | 93,000 | –
Index 21: SEQ ID NO: 113; computational precursor for BbpD04 (protein, optionally absent) GFDWKKVLDKAKDLAENDVREAKQKLEEFYKKAMKLDLTQEMRRKLMLEWIAAMLMAIGDIFNAIEQGKQEADKLKKLGKVLSQLLDELKRRLEELKEEAALKAHDFGREFELKLLFG | – | – | – | – | – | – | BHRF1 −2.81
